Laboratory results: publication PMC3061058 (Nucleic Acids Research, 2010)
Like-named read-outs stand apart in the source and are kept apart here.

T1: rgyr (reverse gyrase, full-length wild type) (Thermotoga maritima, UniProt O51934)
T1 sequence (O51934 1-1104): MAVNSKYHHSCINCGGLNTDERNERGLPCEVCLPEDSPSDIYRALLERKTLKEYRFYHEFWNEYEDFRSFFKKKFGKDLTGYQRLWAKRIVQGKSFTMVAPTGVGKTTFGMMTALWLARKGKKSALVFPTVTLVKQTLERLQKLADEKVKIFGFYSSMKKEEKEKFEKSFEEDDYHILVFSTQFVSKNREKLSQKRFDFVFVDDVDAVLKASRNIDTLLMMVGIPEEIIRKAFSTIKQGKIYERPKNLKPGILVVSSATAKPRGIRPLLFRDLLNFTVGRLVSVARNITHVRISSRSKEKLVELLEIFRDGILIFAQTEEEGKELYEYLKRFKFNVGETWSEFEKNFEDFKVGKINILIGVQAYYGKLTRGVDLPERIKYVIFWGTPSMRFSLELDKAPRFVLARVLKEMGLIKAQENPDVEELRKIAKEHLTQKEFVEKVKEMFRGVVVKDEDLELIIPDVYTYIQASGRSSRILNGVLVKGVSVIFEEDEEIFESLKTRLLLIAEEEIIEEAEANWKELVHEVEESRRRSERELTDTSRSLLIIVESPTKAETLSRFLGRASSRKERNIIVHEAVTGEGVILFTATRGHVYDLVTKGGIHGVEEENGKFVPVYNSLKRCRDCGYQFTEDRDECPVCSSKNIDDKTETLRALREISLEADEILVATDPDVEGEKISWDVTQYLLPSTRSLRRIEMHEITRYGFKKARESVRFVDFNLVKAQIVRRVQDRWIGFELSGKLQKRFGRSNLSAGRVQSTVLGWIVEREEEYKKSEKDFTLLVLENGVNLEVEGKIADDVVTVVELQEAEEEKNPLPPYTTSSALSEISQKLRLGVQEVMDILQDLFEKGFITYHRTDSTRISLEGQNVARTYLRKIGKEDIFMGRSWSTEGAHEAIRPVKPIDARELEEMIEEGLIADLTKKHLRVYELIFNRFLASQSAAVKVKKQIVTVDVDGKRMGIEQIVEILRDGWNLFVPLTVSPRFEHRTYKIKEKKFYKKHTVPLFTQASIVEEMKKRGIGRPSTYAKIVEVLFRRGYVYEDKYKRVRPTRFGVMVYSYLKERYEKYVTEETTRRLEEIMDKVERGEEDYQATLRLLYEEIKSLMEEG

T2: rgyr_Δlatch (Thermotoga maritima, UniProt O51934 1-1104, del389-459)
T2 sequence: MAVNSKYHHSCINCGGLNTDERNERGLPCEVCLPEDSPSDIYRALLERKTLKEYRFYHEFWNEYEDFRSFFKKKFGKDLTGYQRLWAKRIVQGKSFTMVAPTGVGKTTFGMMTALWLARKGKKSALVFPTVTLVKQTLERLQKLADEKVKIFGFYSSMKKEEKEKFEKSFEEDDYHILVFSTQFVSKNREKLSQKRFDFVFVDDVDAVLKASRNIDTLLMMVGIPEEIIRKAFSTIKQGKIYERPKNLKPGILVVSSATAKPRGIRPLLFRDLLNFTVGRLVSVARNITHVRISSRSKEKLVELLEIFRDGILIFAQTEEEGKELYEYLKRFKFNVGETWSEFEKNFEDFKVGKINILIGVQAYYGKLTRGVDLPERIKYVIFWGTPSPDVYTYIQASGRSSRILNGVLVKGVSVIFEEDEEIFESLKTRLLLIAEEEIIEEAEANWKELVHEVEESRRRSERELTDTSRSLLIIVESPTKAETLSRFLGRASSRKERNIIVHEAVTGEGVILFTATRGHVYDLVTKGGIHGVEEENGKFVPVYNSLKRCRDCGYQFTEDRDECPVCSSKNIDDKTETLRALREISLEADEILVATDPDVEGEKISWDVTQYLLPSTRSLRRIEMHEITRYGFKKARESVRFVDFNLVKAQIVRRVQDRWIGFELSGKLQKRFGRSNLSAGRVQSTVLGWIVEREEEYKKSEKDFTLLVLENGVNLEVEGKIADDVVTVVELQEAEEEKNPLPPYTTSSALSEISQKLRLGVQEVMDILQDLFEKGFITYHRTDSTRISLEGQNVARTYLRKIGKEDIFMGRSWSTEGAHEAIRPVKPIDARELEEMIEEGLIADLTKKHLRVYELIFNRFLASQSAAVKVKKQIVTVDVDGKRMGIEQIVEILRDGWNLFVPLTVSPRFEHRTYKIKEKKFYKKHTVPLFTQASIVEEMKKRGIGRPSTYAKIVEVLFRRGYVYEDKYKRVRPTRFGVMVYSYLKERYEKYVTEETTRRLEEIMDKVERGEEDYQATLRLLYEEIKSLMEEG

T3: rgyr_hel_Δlatch (Thermotoga maritima, UniProt O51934 59-388+=G+460-541, internal_change)
T3 sequence: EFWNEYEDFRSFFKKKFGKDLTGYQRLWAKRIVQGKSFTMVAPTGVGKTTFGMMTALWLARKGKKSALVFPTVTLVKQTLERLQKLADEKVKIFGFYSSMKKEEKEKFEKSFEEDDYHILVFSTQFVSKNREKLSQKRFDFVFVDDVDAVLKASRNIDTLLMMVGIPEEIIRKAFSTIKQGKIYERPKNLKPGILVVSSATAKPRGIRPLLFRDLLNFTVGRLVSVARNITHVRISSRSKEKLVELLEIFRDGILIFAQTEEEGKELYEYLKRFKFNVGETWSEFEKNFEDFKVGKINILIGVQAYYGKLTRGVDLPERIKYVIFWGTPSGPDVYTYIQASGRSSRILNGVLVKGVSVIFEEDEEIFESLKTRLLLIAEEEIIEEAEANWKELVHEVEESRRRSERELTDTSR

T4: isolated latch (H3) (Thermotoga maritima, UniProt O51934 388-459)
T4 sequence: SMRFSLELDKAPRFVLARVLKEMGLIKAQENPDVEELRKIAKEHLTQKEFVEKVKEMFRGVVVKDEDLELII

B1: rgyr_hel_Δlatch (helicase-like domain lacking the latch) (Thermotoga maritima MSB8; DEL389-459/INS388G) (protein)
chain: T3 sequence
B2: rgyr_Δlatch (reverse gyrase lacking the latch region) (Thermotoga maritima MSB8; DEL389-459/INS388G) (protein)
chain: MAVNSKYHHSCINCGGLNTDERNERGLPCEVCLPEDSPSDIYRALLERKTLKEYRFYHEFWNEYEDFRSFFKKKFGKDLTGYQRLWAKRIVQGKSFTMVAPTGVGKTTFGMMTALWLARKGKKSALVFPTVTLVKQTLERLQKLADEKVKIFGFYSSMKKEEKEKFEKSFEEDDYHILVFSTQFVSKNREKLSQKRFDFVFVDDVDAVLKASRNIDTLLMMVGIPEEIIRKAFSTIKQGKIYERPKNLKPGILVVSSATAKPRGIRPLLFRDLLNFTVGRLVSVARNITHVRISSRSKEKLVELLEIFRDGILIFAQTEEEGKELYEYLKRFKFNVGETWSEFEKNFEDFKVGKINILIGVQAYYGKLTRGVDLPERIKYVIFWGTPSGPDVYTYIQASGRSSRILNGVLVKGVSVIFEEDEEIFESLKTRLLLIAEEEIIEEAEANWKELVHEVEESRRRSERELTDTSRSLLIIVESPTKAETLSRFLGRASSRKERNIIVHEAVTGEGVILFTATRGHVYDLVTKGGIHGVEEENGKFVPVYNSLKRCRDCGYQFTEDRDECPVCSSKNIDDKTETLRALREISLEADEILVATDPDVEGEKISWDVTQYLLPSTRSLRRIEMHEITRYGFKKARESVRFVDFNLVKAQIVRRVQDRWIGFELSGKLQKRFGRSNLSAGRVQSTVLGWIVEREEEYKKSEKDFTLLVLENGVNLEVEGKIADDVVTVVELQEAEEEKNPLPPYTTSSALSEISQKLRLGVQEVMDILQDLFEKGFITYHRTDSTRISLEGQNVARTYLRKIGKEDIFMGRSWSTEGAHEAIRPVKPIDARELEEMIEEGLIADLTKKHLRVYELIFNRFLASQSAAVKVKKQIVTVDVDGKRMGIEQIVEILRDGWNLFVPLTVSPRFEHRTYKIKEKKFYKKHTVPLFTQASIVEEMKKRGIGRPSTYAKIVEVLFRRGYVYEDKYKRVRPTRFGVMVYSYLKERYEKYVTEETTRRLEEIMDKVERGEEDYQATLRLLYEEIKSLMEEG
B3: 60 b ssDNA (ssDNA)
DNA: AAGCCAAGCTTCTAGAGTCAGCCCGTGATATTCATTACTTCTTATCCTAGGATCCCCGTT
B4: 60 bp dsDNA (dsDNA)
DNA 1: B3 DNA
DNA 2: AACGGGGATCCTAGGATAAGAAGTAATGAATATCACGGGCTGACTCTAGAAGCTTGGCTT

How the values were obtained:
[1] = biological target: T1, rgyr (reverse gyrase, full-length wild type); experiment: fluorescence equilibrium titration; assay type: binding
[2] = biological target: rgyr_Δlatch (reverse gyrase lacking the latch region) (Thermotoga maritima, UniProt O51934, DEL389-459/INS388G); experiment: biochemical
purified protein = substrate: Nc1ncnc2c1ncn2[C@@H]1O[C@H](COP(=O)(O)OP(=O)(O)OP(=O)(O)O)[C@@H](O)[C@H]1O; experiment: purified protein; conditions: no DNA, pH 7.5, 10 mM MgCl2, 0.15 M NaCl
rgyr_Δlatch [3] = biological target: T2, rgyr_Δlatch; experiment: fluorescence anisotropy
rgyr_hel_Δlatch = biological target: T3, rgyr_hel_Δlatch; experiment: fluorescence anisotropy
isolated latch (H3) = biological target: T4, isolated latch (H3); experiment: fluorescence anisotropy
rgyr_Δlatch [4] = biological target: T2, rgyr_Δlatch; experiment: fluorescence anisotropy; remark: listed apart in the source

Molecule | Km (purified protein) | kcat (purified protein) | Kd (rgyr_hel_Δlatch) | Kd (isolated latch (H3)) | also measured
Nc1ncnc2c1ncn2[C@@H]1O[C@H](COP(=O)(O)OP(=O)(O)NP(=O)(O)O)[C@@H](O)[C@H]1O [ADPNP] | – | – | – | – | Kd [1]: 10 ± 0.8 µM; Kd [2]: 4.7 ± 0.8 µM
B1 | 67 ± 18 µM | 0.02 s⁻¹ | – | – | –
B2 | 26.5 ± 3.5 µM | 0.018 s⁻¹ | – | – | –
B3 | – | – | 0.42 ± 0.07 µM | 64 ± 29 µM | Kd (rgyr_Δlatch [3]): 0.033 ± 0.077 µM
B4 | – | – | 21 ± 5 µM | 78 ± 39 µM | Kd (rgyr_Δlatch [4]): 0.096 ± 0.019 µM
